The supplement of paper PMC9112550, “Optimization of the antimicrobial peptide Bac7 by deep mutational scanning” (BMC Biology, 2022)

tested on: Escherichia coli TOP10; assay: shrunken log2 fold change of peptide-encoding DNA abundance (4.5 h post-induction vs induction); higher = less antimicrobial activity (less host growth inhibition); conditions: time post-induction: 4.5 h; library: site-saturation at positions 5, 18, 19, 20
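Further: peptides expressed intracellularly from a pBAD plasmid library in pooled LB shake-flask culture, induced with 0.3% L-arabinose, DNA abundance read by NGS, three biological replicates, DESeq2 with apeglm shrinkage.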

| Sequence | shrunken log2 fold change |
| --- | --- |
| RRIRNRPPRLPRPRPRPVVKPRP | 0.0106 |
| RRIRVRPPRLPRPRPRPERWPRP | 0.615 |
| RRIRCRPPRLPRPRPRPQIQPRP | -0.288 |
| RRIRARPPRLPRPRPRPYYPPRP | -0.349 |
| RRIRHRPPRLPRPRPRPQCPPRP | -0.211 |
| RRIRQRPPRLPRPRPRPRMSPRP | 0.208 |
| RRIRWRPPRLPRPRPRPTQVPRP | 0.477 |
| RRIRCRPPRLPRPRPRPPQCPRP | 0.182 |
| RRIRDRPPRLPRPRPRPRWYPRP | -0.0526 |
| RRIRHRPPRLPRPRPRPHMCPRP | -0.0681 |
| RRIRTRPPRLPRPRPRPTNPPRP | -0.374 |
| RRIRCRPPRLPRPRPRPTWKPRP | -0.114 |
| RRIRPRPPRLPRPRPRPPRSPRP | 0.518 |
| RRIRARPPRLPRPRPRPLTMPRP | 0.637 |
| RRIRVRPPRLPRPRPRPPMTPRP | 0.209 |
| RRIRVRPPRLPRPRPRPVDNPRP | -0.663 |
| RRIRLRPPRLPRPRPRPMMPPRP | -0.174 |
| RRIRERPPRLPRPRPRPPFKPRP | -0.0871 |
| RRIRQRPPRLPRPRPRPYSSPRP | -0.751 |
| RRIRSRPPRLPRPRPRPSDHPRP | -0.555 |
| RRIRDRPPRLPRPRPRPHRCPRP | -0.00141 |
| RRIRYRPPRLPRPRPRPLLGPRP | -0.25 |

| Sequence | shrunken log2 fold change |
| --- | --- |
| RRIRVRPPRLPRPRPRPYMLPRP | -0.71 |
| RRIRFRPPRLPRPRPRPRALPRP | 0.148 |
| RRIRQRPPRLPRPRPRPTVKPRP | -0.096 |
| RRIRKRPPRLPRPRPRPGSEPRP | 0.66 |
| RRIRNRPPRLPRPRPRPVFHPRP | -0.256 |
| RRIRMRPPRLPRPRPRPSCYPRP | -0.348 |
| RRIRERPPRLPRPRPRPACFPRP | 0.00624 |
| RRIRARPPRLPRPRPRPFIKPRP | -0.529 |
| RRIRDRPPRLPRPRPRPRCAPRP | 0.885 |
| RRIRSRPPRLPRPRPRPEDHPRP | 0.146 |
| RRIRNRPPRLPRPRPRPFFDPRP | -0.0739 |
| RRIRRRPPRLPRPRPRPWPQPRP | 0.101 |
| RRIRPRPPRLPRPRPRPSQSPRP | -0.0693 |
| RRIRRRPPRLPRPRPRPYSFPRP | -0.529 |
| RRIRQRPPRLPRPRPRPGNMPRP | -0.0822 |
| RRIRERPPRLPRPRPRPKQEPRP | -0.127 |
| RRIRNRPPRLPRPRPRPGLGPRP | 0.611 |
| RRIRSRPPRLPRPRPRPCCAPRP | 0.115 |
| RRIRIRPPRLPRPRPRPMNYPRP | -0.0706 |
| RRIRDRPPRLPRPRPRPYGGPRP | -0.122 |
| RRIRVRPPRLPRPRPRPFMGPRP | -0.334 |
| RRIRIRPPRLPRPRPRPHSAPRP | -0.143 |

| Sequence | shrunken log2 fold change |
| --- | --- |
| RRIRSRPPRLPRPRPRPLRPPRP | 0.953 |
| RRIRPRPPRLPRPRPRPMKDPRP | -0.313 |
| RRIRTRPPRLPRPRPRPRNNPRP | -0.803 |
| RRIRVRPPRLPRPRPRPGTIPRP | -0.0277 |
| RRIRKRPPRLPRPRPRPWQGPRP | 0.0142 |
| RRIRQRPPRLPRPRPRPVPFPRP | -0.374 |
| RRIRERPPRLPRPRPRPAGPPRP | -0.0342 |
| RRIRARPPRLPRPRPRPCVGPRP | 2.43 |
| RRIRSRPPRLPRPRPRPKQGPRP | 0.245 |
| RRIRERPPRLPRPRPRPGREPRP | 0.241 |
| RRIRWRPPRLPRPRPRPNKSPRP | 0.0866 |
| RRIRRRPPRLPRPRPRPFESPRP | -0.0115 |
| RRIRLRPPRLPRPRPRPQKFPRP | 0.0452 |
| RRIRERPPRLPRPRPRPQNKPRP | -0.64 |
| RRIRLRPPRLPRPRPRPLFMPRP | -0.546 |
| RRIRSRPPRLPRPRPRPAYWPRP | 0.259 |
| RRIRPRPPRLPRPRPRPHIIPRP | -0.19 |
| RRIRVRPPRLPRPRPRPTMIPRP | 0.0351 |
| RRIRLRPPRLPRPRPRPPFNPRP | -0.116 |
| RRIRSRPPRLPRPRPRPAAGPRP | 0.585 |
| RRIRWRPPRLPRPRPRPFSDPRP | -0.0111 |
| RRIRWRPPRLPRPRPRPQFMPRP | -0.155 |

| Sequence | shrunken log2 fold change |
| --- | --- |
| RRIRTRPPRLPRPRPRPCGTPRP | -0.0194 |
| RRIRERPPRLPRPRPRPPYRPRP | 0.0947 |
| RRIRYRPPRLPRPRPRPFHNPRP | -0.451 |
| RRIRERPPRLPRPRPRPTETPRP | -0.00327 |
| RRIRHRPPRLPRPRPRPATYPRP | -0.501 |
| RRIRCRPPRLPRPRPRPPFKPRP | 0.313 |
| RRIRQRPPRLPRPRPRPDCYPRP | -0.304 |
| RRIRRRPPRLPRPRPRPISWPRP | -0.166 |
| RRIRKRPPRLPRPRPRPIDIPRP | 0.00848 |
| RRIRVRPPRLPRPRPRPHIDPRP | -0.15 |
| RRIRLRPPRLPRPRPRPRFMPRP | -0.244 |
| RRIRRRPPRLPRPRPRPWLVPRP | -0.0986 |
| RRIRNRPPRLPRPRPRPWNPPRP | -0.0102 |
| RRIRVRPPRLPRPRPRPQARPRP | -0.109 |
| RRIRNRPPRLPRPRPRPAKTPRP | 0.0732 |
| RRIRFRPPRLPRPRPRPRWEPRP | 0.025 |
| RRIRQRPPRLPRPRPRPWGCPRP | -0.122 |
| RRIRLRPPRLPRPRPRPEVRPRP | -0.0732 |
| RRIRRRPPRLPRPRPRPFVSPRP | -0.0868 |
| RRIRVRPPRLPRPRPRPKEQPRP | -0.0164 |
| RRIRPRPPRLPRPRPRPNVRPRP | -0.163 |
| RRIRQRPPRLPRPRPRPDFLPRP | -0.338 |

| Sequence | shrunken log2 fold change |
| --- | --- |
| RRIRSRPPRLPRPRPRPTDRPRP | 0.000994 |
| RRIRPRPPRLPRPRPRPAWKPRP | -0.109 |
| RRIRYRPPRLPRPRPRPGIIPRP | -0.0361 |
| RRIRMRPPRLPRPRPRPRIKPRP | 0.0377 |
| RRIRLRPPRLPRPRPRPYTFPRP | -0.00482 |
| RRIRCRPPRLPRPRPRPYDQPRP | -0.16 |
| RRIRTRPPRLPRPRPRPLRYPRP | -0.255 |
| RRIRTRPPRLPRPRPRPNCFPRP | -0.0362 |
| RRIRTRPPRLPRPRPRPCALPRP | -0.0236 |
| RRIRYRPPRLPRPRPRPWGEPRP | -0.102 |
| RRIRYRPPRLPRPRPRPAFLPRP | -0.365 |
| RRIRGRPPRLPRPRPRPYDPPRP | -0.0783 |
| RRIRARPPRLPRPRPRPFNVPRP | 0.0338 |
| RRIRMRPPRLPRPRPRPKQDPRP | 1.14 |
| RRIRSRPPRLPRPRPRPVHRPRP | -0.0285 |
| RRIRTRPPRLPRPRPRPANKPRP | -0.216 |
| RRIRWRPPRLPRPRPRPQVCPRP | 0.189 |
| RRIRMRPPRLPRPRPRPQDRPRP | 0.179 |
| RRIRTRPPRLPRPRPRPTNEPRP | -0.261 |
| RRIRDRPPRLPRPRPRPAHRPRP | -0.0802 |
| RRIRMRPPRLPRPRPRPTNPPRP | 0.149 |
